Here are results for one molecule from publication PMC9236607, “TUBA1A tubulinopathy mutants disrupt neuron morphogenesis and override XMAP215/Stu2 regulation of microtubule dynamics” (eLife, 2022).

The assay addresses T1, purified budding yeast tubulin heterodimer, Tub1-WT (internal 6X-His) with Tub2 (S. cerevisiae, UniProt P09733 1-447; P02557 1-457).
T1 construct: alpha-tubulin Tub1, S. cerevisiae, from pRS426-GAL-Tub1-internal 6X-His (Johnson et al., 2011); beta-tubulin Tub2, S. cerevisiae, untagged, from pRS424-GAL-Tub2 (Johnson et al., 2011); also called WT tubulin; WT yeast tubulin; source: S. cerevisiae JEL1 (protease deficient), overexpressed from GAL plasmids, purified (His60 Ni column, HiTrap Q)
The assay is described as follows: pull-down; 100 nM tubulin mixed with 9.8 nM to 5 µM GST-TOG1/2 at 4°C for 15 min, then glutathione magnetic agarose beads, 4°C, 1 hr; beads equilibrated in 125 mM Tris-HCl, 150 mM KCl, 1 mM DTT, 1 mM EDTA, pH 7.4; unbound tubulin left in the supernatant read by western blot for α- and β-tubulin. Conditions: both partners purified.

T1 sequence (P09733 whole entry, chain 1 of 2): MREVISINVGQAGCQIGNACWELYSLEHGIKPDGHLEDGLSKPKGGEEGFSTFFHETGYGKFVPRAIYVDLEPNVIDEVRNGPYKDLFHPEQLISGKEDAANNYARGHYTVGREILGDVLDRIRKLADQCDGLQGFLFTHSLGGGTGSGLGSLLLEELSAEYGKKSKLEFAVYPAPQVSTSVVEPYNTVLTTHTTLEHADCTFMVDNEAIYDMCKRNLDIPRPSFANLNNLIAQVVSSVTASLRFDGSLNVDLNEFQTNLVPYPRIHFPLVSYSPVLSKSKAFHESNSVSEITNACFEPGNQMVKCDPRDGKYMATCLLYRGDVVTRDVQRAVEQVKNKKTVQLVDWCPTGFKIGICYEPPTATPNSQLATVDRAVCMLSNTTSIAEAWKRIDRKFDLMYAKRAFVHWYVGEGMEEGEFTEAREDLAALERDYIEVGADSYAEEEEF
T1 sequence (P02557 whole entry, chain 2 of 2): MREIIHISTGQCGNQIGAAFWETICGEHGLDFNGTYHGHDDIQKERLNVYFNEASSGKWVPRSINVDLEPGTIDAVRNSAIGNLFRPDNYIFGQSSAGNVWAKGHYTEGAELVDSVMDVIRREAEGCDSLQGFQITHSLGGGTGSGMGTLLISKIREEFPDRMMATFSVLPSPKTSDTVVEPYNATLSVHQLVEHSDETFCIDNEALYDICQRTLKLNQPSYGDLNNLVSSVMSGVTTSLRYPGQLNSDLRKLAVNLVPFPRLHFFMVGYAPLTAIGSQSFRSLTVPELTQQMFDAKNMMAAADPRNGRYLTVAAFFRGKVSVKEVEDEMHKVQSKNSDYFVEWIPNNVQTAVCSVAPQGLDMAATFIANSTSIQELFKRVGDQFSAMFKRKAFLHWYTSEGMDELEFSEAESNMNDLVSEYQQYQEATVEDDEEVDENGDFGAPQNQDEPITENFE

B1: GST-TOG1/2 (the two TOG domains of Stu2 fused to a GST tag, Stu2 1-590) (domain or fragment, S. cerevisiae, UniProt P46675 1-590, looked up)
chain: MSGEEEVDYTTLPLEERLTYKLWKARLEAYKELNQLFRNSVGDISRDDNIQIYWRDPTLFAQYITDSNVVAQEQAIVALNSLIDAFASSSLKNAHNITLISTWTPLLVEKGLTSSRATTKTQSMSCILSLCGLDTSITQSVELVIPFFEKKLPKLIAAAANCVYELMAAFGLTNVNVQTFLPELLKHVPQLAGHGDRNVRSQTMNLIVEIYKVTGNNSDLLEEILFKKLKPIQVKDLHKLFAKVGDEPSSSKMLFEWEKRELEKKRSQEEEARKRKSILSNDEGEYQIDKDGDTLMGMETDMPPSKQQSGVQIDTFSMLPEETILDKLPKDFQERITSSKWKDRVEALEEFWDSVLSQTKKLKSTSQNYSNLLGIYGHIIQKDANIQAVALAAQSVELICDKLKTPGFSKDYVSLVFTPLLDRTKEKKPSVIEAIRKALLTICKYYDPLASSGRNEDMLKDILEHMKHKTPQIRMECTQLFNASMKEEKDGYSTLQRYLKDEVVPIVIQIVNDTQPAIRTIGFESFAILIKIFGMNTFVKTLEHLDNLKRKKIEETVKTLPNFSIASGSTHSTIETNKQTGPMENKFLLK
notes: Stu2 (yeast homologue of XMAP215), S. cerevisiae, residues 1-590 with the TOG1 and TOG2 domains, from pGEX-6P-1 Stu2 1-590 (Widlund et al., 2012); also called Stu2 TOG1/2 domains; Stu2 TOG1/TOG2 domains; source: E. coli BL21, purified (GSTrap HP, eluted with reduced glutathione); not shown: GST, N-terminal, kept
For B1, the binding result is given as “binds”.
